Results: patent US11278600B2, “Human alpha-galactosidase variants” (Codexis, Inc., priority 2014, dated 2022)
Numbering of substitutions follows the chain as printed.

B1: 478 (protein)
chain: LDNGLARTPTMGWLHWERFMCNLDCQEEPDSCISEKLFMEMAERMVSEGWKDAGYEYLCIDDCWMAPQRDSEGRLQADPQRFPHGIRQLANYVHSKGLKLGIYADVGNKTCAGFPGSFGYYDIDAQTFADWGVDLLKFDGCYCDSLENLADGYKHMSLALNRTGRSIVYSCEWPLYMWPFQKPNYTEIRQYCNHWRNFADIDDSWKSIKSILDWTSFNQERIVDVAGPGGWNDPDMLVIGNFGLSWNQQVTQMALWAIMAAPLFMSNDLRHISPQAKALLQDKDVIAINQDPLGKQGYQLRQGDNFEVWERPLSGLAWAVAMINRQEIGGPRSYTIAVASLGKGVACNPACFITQLLPVKRKLGFYEWTSRLRSHINPTGTVLLQLENTMQSSLKDLL
modifications: Synthetic Polypeptide sequence of Variant No. 478 of mature Human GLA
B2: 481 (protein)
chain: B1 chain with M390G, S392M
modifications: Synthetic Polypeptide sequence of Variant No. 481 of mature Human GLA
B3: 487 (protein)
chain: B1 chain with T389G, S392M
modifications: Synthetic Polypeptide sequence of Variant No. 487 of mature Human GLA
B4: 484 (protein)
chain: B1 chain with S392V
modifications: Synthetic Polypeptide sequence of Variant No. 484 of mature Human GLA
B5: 483 (protein)
chain: B1 chain with S392C
modifications: Synthetic Polypeptide sequence of Variant No. 483 of mature Human GLA
B6: 480 (protein)
chain: B1 chain with M390R, S392M
modifications: Synthetic Polypeptide sequence of Variant No. 480 of mature Human GLA
B7: 486 (protein)
chain: B1 chain with M390C, S392M
modifications: Synthetic Polypeptide sequence of Variant No. 486 of mature Human GLA
B8: 482 (protein)
chain: B1 chain with Q385G, S392M
modifications: Synthetic Polypeptide sequence of Variant No. 482 of mature Human GLA
B9: 479 (protein)
chain: B1 chain with S392F
modifications: Synthetic Polypeptide sequence of Variant No. 479 of mature Human GLA
B10: 485 (protein)
chain: B1 chain with S392W
modifications: Synthetic Polypeptide sequence of Variant No. 485 of mature Human GLA
B11: 370 (protein)
chain: LDNGLARTPTMGWLHWERFMCNLDCQEEPDSCISEKLFMEMAEQMVSEGWKDAGYEYLCIDDCWMAPQRDSEGRLQADPQRFPHGIRQLANYVHSKGLKLGIYADVGNKTCAGFPGSFGYYDIDAQTFADWGVDLLKFDGCYCDSLENLADGYKHMSLALNRTGRSIVYSCEWPLYMWPFQKPNYTEIRQYCNHWRNFADIDDSWKSIKSILDWTSRNQERIVDVAGPGGWNDPDMLVIGNFGLSWDQQVTQMALWAIMAAPLFMSNDLRHISPQAKALLQDKDVIAINQDPLGKQGYQLRKGDNFEVWERPLSGDAWAVAIINRQEIGGPRSYTIPVASLGKGVACNPACFITQLLPVKRQLGFYNWTSRLKSHINPTGTVLLQLENTMQMSLKDLL
modifications: Synthetic Polypeptide sequence of Variant No. 370 of mature Human GLA

Assay: HTP-analysis of supernatants pretreated with base (MUGal hydrolysis)
Assay type: biochemical
Settings: activity of the variant/activity of Rd4BB (SEQ ID NO: 15); challenge at pH 9.65
Method in brief: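 Fluorescence of released 4-MU (Ex 355 nm, Em 448 nm) after carbonate quench reports MUGal hydrolysis by GLA variants secreted from INVSc1 yeast. Before the acidic (pH 4.3-4.8) 30-180 min reaction at 37° C, supernatants had been pre-incubated at pH 7.0-9.7 for 1-18 h at 37° C.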
For B1, the “Relative Activity of GLA Variants After Challenge at pH 9.65” value (“Relative Activity … at pH 9.65” below) was “+ (0.5 to 1.5 relative activity over Rd4BB (SEQ ID NO: 15))”. In the case of B2, the “Relative Activity … at pH 9.65” value is reported as “+ (0.5 to 1.5 relative activity over Rd4BB (SEQ ID NO: 15))”. For B3, the “Relative Activity … at pH 9.65” value was “+ (0.5 to 1.5 relative activity over Rd4BB (SEQ ID NO: 15))”. For B4, the “Relative Activity … at pH 9.65” value was “+ (0.5 to 1.5 relative activity over Rd4BB (SEQ ID NO: 15))”. For B5, the “Relative Activity … at pH 9.65” value was “+ (0.5 to 1.5 relative activity over Rd4BB (SEQ ID NO: 15))”. With B6 the “Relative Activity … at pH 9.65” value was “+ (0.5 to 1.5 relative activity over Rd4BB (SEQ ID NO: 15))”. In the case of B7, the “Relative Activity … at pH 9.65” value is reported as “+ (0.5 to 1.5 relative activity over Rd4BB (SEQ ID NO: 15))”. In the case of B8, the “Relative Activity … at pH 9.65” value is reported as “+ (0.5 to 1.5 relative activity over Rd4BB (SEQ ID NO: 15))”. In the case of B9, the “Relative Activity … at pH 9.65” value is reported as “+ (0.5 to 1.5 relative activity over Rd4BB (SEQ ID NO: 15))”. For B10, the “Relative Activity … at pH 9.65” value was “+ (0.5 to 1.5 relative activity over Rd4BB (SEQ ID NO: 15))”. With B11 the “Relative Activity … at pH 9.65” value was “+ (0.5 to 1.5 relative activity over Rd4BB (SEQ ID NO: 15))”.

Assay: HTP-analysis of yeast culture supernatants, no challenge (MUGal hydrolysis)
Assay type: biochemical
Settings: activity of the variant/activity of Rd4BB (SEQ ID NO: 15)
Method in brief: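 GLA variants expressed in yeast INVSc1, secreted into SD-Ura broth over 66-84 h at 30° C; clarified supernatants tested without challenge. Supernatant mixed with McIlvaine buffer pH 4.8 and 2 mM MUGal (citrate/KCl, pH 4.6), 37° C for 30-180 min, carbonate-quenched, fluorescence Ex 355/Em 448 nm.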
In the case of B1, the “Relative Activity of GLA Variants After No Challenge (NC)” value is reported as “+ (0.5 to 1.5 relative activity over Rd4BB (SEQ ID NO: 15))”. With B2 the “Relative Activity of GLA Variants After No Challenge (NC)” value was “+ (0.5 to 1.5 relative activity over Rd4BB (SEQ ID NO: 15))”. For B3, the “Relative Activity of GLA Variants After No Challenge (NC)” value was “+ (0.5 to 1.5 relative activity over Rd4BB (SEQ ID NO: 15))”. For B4, the “Relative Activity of GLA Variants After No Challenge (NC)” value was “+ (0.5 to 1.5 relative activity over Rd4BB (SEQ ID NO: 15))”. For B5, the “Relative Activity of GLA Variants After No Challenge (NC)” value was “+ (0.5 to 1.5 relative activity over Rd4BB (SEQ ID NO: 15))”. For B6, the “Relative Activity of GLA Variants After No Challenge (NC)” value was “+ (0.5 to 1.5 relative activity over Rd4BB (SEQ ID NO: 15))”. With B7 the “Relative Activity of GLA Variants After No Challenge (NC)” value was “+ (0.5 to 1.5 relative activity over Rd4BB (SEQ ID NO: 15))”. With B8 the “Relative Activity of GLA Variants After No Challenge (NC)” value was “+ (0.5 to 1.5 relative activity over Rd4BB (SEQ ID NO: 15))”. In the case of B9, the “Relative Activity of GLA Variants After No Challenge (NC)” value is reported as “+ (0.5 to 1.5 relative activity over Rd4BB (SEQ ID NO: 15))”. For B10, the “Relative Activity of GLA Variants After No Challenge (NC)” value was “+ (0.5 to 1.5 relative activity over Rd4BB (SEQ ID NO: 15))”. With B11 the “Relative Activity of GLA Variants After No Challenge (NC)” value was “+ (0.5 to 1.5 relative activity over Rd4BB (SEQ ID NO: 15))”.

Assay: HTP-analysis of supernatants pretreated with acid (MUGal hydrolysis)
Assay type: biochemical
Settings: activity of the variant/activity of Rd4BB (SEQ ID NO: 15); challenge at pH 3.7
Method in brief: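 GLA variants were secreted from INVSc1 yeast grown 66-84 h at 30° C. in SD-Ura with 2% glucose; supernatants were mixed with McIlvaine buffer pH 3.3-4.3 and held at 37° C. for 1-3 h. Residual activity on MUGal at pH 4.8 was then measured by fluorescence.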
For B1, the “Relative Activity of GLA Variants After Challenge at pH 3.7” value (from here on “Relative Activity … at pH 3.7”) was “++ (>1.5 to 2.5 relative activity over Rd4BB (SEQ ID NO: 15))”. In the case of B2, the “Relative Activity … at pH 3.7” value is reported as “+ (0.5 to 1.5 relative activity over Rd4BB (SEQ ID NO: 15))”. In the case of B3, the “Relative Activity … at pH 3.7” value is reported as “+ (0.5 to 1.5 relative activity over Rd4BB (SEQ ID NO: 15))”. In the case of B4, the “Relative Activity … at pH 3.7” value is reported as “+ (0.5 to 1.5 relative activity over Rd4BB (SEQ ID NO: 15))”. With B5 the “Relative Activity … at pH 3.7” value was “+ (0.5 to 1.5 relative activity over Rd4BB (SEQ ID NO: 15))”. In the case of B6, the “Relative Activity … at pH 3.7” value is reported as “+ (0.5 to 1.5 relative activity over Rd4BB (SEQ ID NO: 15))”. In the case of B7, the “Relative Activity … at pH 3.7” value is reported as “+ (0.5 to 1.5 relative activity over Rd4BB (SEQ ID NO: 15))”. For B8, the “Relative Activity … at pH 3.7” value was “+ (0.5 to 1.5 relative activity over Rd4BB (SEQ ID NO: 15))”. In the case of B9, the “Relative Activity … at pH 3.7” value is reported as “+ (0.5 to 1.5 relative activity over Rd4BB (SEQ ID NO: 15))”. In the case of B10, the “Relative Activity … at pH 3.7” value is reported as “+ (0.5 to 1.5 relative activity over Rd4BB (SEQ ID NO: 15))”. In the case of B11, the “Relative Activity … at pH 3.7” value is reported as “++ (>1.5 to 2.5 relative activity over Rd4BB (SEQ ID NO: 15))”.
